Experimental findings from paper PMC11626772 are described below.

For the test, the target named is N-terminally truncated type IV pilin from P. aeruginosa strain P1 (ΔP1) (Pseudomonas aeruginosa strain P1). The test can be described thus: SEC-MALS; 23 mg ml^-1 ΔP1 with trigger solution (10 mM Tris, 300 mM NaCl, 1 mM EDTA, 1 mM DTT, 1 M MPD pH 7.4) at 10:1 (v:v) protein:hydrophobe, 96 h at room temperature with nutation; then SEC-MALS as for the untreated sample; monomer to dimer. On the technique in general: In gel filtration, larger molecules generally elute earlier.

As a reminder, the stoichiometry N is a count of units in the complex or per binding partner. For “N-terminally truncated type IV pilin from P. aeruginosa strain P1 (ΔP1) (domain or fragment)”, the mass fraction of the dimer worked out at 9.1% and the stoichiometry N amounted to 2.
